# Laboratory results published in patent US20200024360A1 (Janssen / Centocor, published 2020).
# Where two headings read alike, the source gives them in different places.
# T1: Cynomolgous monkey PSMA, full length (Macaca fascicularis, UniProt Q04609 1-750 (human entry))
# T1 construct: On transfected HEK293F cells; also called cyno PSMA; EHH56646.1
# T1 chain: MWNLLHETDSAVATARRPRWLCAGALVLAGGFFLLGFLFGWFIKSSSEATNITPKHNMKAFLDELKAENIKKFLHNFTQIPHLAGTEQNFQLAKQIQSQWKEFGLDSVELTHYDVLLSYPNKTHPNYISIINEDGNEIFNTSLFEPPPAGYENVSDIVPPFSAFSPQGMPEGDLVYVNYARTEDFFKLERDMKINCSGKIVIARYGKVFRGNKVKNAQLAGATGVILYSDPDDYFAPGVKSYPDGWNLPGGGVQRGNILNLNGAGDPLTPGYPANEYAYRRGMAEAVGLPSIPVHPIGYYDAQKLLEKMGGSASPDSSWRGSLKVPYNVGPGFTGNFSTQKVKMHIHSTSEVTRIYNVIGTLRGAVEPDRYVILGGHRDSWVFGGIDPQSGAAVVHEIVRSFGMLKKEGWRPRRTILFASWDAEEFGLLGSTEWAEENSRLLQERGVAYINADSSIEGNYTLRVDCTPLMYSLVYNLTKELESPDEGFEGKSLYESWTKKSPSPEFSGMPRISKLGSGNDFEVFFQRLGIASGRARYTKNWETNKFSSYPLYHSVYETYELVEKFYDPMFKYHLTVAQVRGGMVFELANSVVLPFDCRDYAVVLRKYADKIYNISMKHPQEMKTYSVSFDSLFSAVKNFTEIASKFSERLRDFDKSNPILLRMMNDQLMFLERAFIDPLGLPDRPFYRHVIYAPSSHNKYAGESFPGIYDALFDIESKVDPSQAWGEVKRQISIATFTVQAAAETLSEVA
# T2: chimpanzee PSMA, full length (Pan troglodytes, UniProt Q04609 1-750 (human entry))
# T2 construct: On transfected HEK293F cells; also called chimp PSMA; H2Q3K5_PANTR
# T2 chain: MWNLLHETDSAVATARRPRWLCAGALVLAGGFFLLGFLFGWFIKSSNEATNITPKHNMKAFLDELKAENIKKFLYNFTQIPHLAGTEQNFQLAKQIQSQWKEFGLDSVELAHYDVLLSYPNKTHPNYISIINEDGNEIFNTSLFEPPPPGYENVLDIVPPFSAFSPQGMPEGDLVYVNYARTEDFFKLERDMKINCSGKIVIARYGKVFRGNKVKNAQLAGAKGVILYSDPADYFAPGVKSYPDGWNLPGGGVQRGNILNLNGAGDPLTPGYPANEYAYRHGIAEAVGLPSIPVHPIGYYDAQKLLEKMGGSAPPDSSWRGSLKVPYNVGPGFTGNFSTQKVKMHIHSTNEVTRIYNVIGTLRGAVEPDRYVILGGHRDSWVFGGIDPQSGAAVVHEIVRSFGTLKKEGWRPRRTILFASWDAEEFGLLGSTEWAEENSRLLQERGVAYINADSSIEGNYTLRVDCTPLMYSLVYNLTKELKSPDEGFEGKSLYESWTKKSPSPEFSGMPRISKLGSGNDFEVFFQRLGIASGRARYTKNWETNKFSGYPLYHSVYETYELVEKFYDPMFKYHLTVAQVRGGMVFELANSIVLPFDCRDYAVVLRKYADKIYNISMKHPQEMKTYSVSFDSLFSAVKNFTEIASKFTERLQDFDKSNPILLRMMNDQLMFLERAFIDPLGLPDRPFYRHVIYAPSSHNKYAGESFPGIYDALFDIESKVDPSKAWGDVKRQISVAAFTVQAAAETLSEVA
# Legend:
# [1] = target: T3, human PSMA (prostate specific membrane antigen), full length (human, UniProt Q04609 1-750); assay: flow cytometry cell binding assay, bispecific antibody titrated on LNCaP cells (human PSMA)
# T3 construct: On LNCaP or C4-2B cells (endogenous) or transduced HEK293F cells; also called FOLH1_HUMAN; hPSMA
# Method: (§1) PSMA×CD3 bispecific antibodies were tested for binding to PSMA positive cell lines LNCAP, human PSMA-HEK, Chimpanzee-PSMA-HEK and Cynomolgous monkey PSMA-HEK. To assess the binding capabilities of the PSMA bispecific antibodies, the cell-binding assay was utilized (described previously). Briefly, PSMA expressing tumor cells are bound by bispecific antibodies at known concentrations and the bound antibody is detected by an anti-human kappa light chain PE conjugated detection reagent (Invitrogen). The Mean Fluorescents Intensity (MFI) is the measure of bound bispecific antibody. The MFI is converted to a relative EC₅₀. EC₅₀ is a commonly used dose-response curve, where the half maximal effective concentration or the EC₅₀ point is defined as the inflection point of the curve. EC₅₀ s were determined by measuring cell bound bispecific and known concentrations. […] The dose response curves were then diluted down to that of background or no bispecific binding. The inflection point of this curve reflects the EC₅₀ point. The calculated EC₅₀ is determined by taking the ug/ml amount of bispecific antibody at the EC₅₀ point and converting it to a molarity value based on the MW of the bispecific antibody. Bispecific antibodies were normalized for protein concentration and then incubated with the same number of cells expressing either human or cyno PSMA. […]
# [2] = target: T3, human PSMA (prostate specific membrane …); assay: as above; remark: listed apart in the source
# Method: (§2) PSMA×CD3 bispecific antibodies were tested for binding to PSMA positive cell lines LNCAP, human PSMA-HEK, Chimpanzee-PSMA-HEK and Cynomolgous monkey PSMA-HEK. To assess the binding capabilities of the PSMA bispecific antibodies, the cell-binding assay was utilized (described previously). Briefly, PSMA expressing tumor cells are bound by bispecific antibodies at known concentrations and the bound antibody is detected by an anti-human kappa light chain PE conjugated detection reagent (Invitrogen). The Mean Fluorescents Intensity (MFI) is the measure of bound bispecific antibody. The MFI is converted to a relative EC₅₀. EC₅₀ is a commonly used dose-response curve, where the half maximal effective concentration or the EC₅₀ point is defined as the inflection point of the curve. EC₅₀ s were determined by measuring cell bound bispecific and known concentrations. […] The dose response curves were then diluted down to that of background or no bispecific binding. The inflection point of this curve reflects the EC₅₀ point. The calculated EC₅₀ is determined by taking the ug/ml amount of bispecific antibody at the EC₅₀ point and converting it to a molarity value based on the MW of the bispecific antibody. Bispecific antibodies were normalized for protein concentration and then incubated with the same number of cells expressing either human or cyno PSMA. The MFI at each concentration was collected by flow cytometry and plotted as a function of concentration. Data was transformed via log 10 and then plotted. Nonlinear regression of binding curves was done to determine EC₅₀ s. These relative values were used for ranking PSMA binding to target cells.
# PSMA×CD3 bispecific antibodies were tested for binding to PSMA positive cell line, LNCAP, to PSMA negative cell line, PC3. To assess the binding capabilities of the PSMA bispecific antibodies, the cell-binding assay was utilized (described previously). Bispecific antibodies were normalized for protein concentration and then incubated with the same number of cells expressing either human or cyno PSMA. The MFI at each concentration was collected by flow cytometry and plotted as a function of concentration.
# [3] = target: T1, Cynomolgous monkey PSMA, full length; assay: FACS, whole cell binding
# [4] = target: T3, human PSMA (prostate specific membrane …); assay: FACS, whole cell binding
# [5] = target: T3, human PSMA (prostate specific membrane …); assay: flow cytometry, bispecific antibody titrated on LNCaP cells (human PSMA), anti-human kappa light chain PE
# Method: as §2
# [6] = target: T1, Cynomolgous monkey PSMA, full length; assay: flow cytometry, bispecific antibody titrated on cyno PSMA (PSMG5) HEK cells, anti-human kappa light chain PE
# Method: as §1
# [7] = target: T2, chimpanzee PSMA, full length; assay: flow cytometry, bispecific antibody titrated on chimp PSMA (PSMG9) HEK cells, anti-human kappa light chain PE
# Method: as §1
binder,measurement,setting,value
"PS3B27 (bispecific antibody, human IgG4 S228P, kappa, lambda, F234A L235A, IgG4 PAA; PSMA arm chains first, then CD3 arm (F405L, R409K); also called PSMB127 x CD3B219; PS2B27) heavy 1: not shown light 1: not shown heavy 2: EVQLVESGGGLVQPGGSLRLSCAASGFTFNTYAMNWVRQAPGKGLEWVARIRSKYNNYATYYAASVKGRFTISRDDSKNSLYLQMNSLKTEDTAVYYCARHGNFGNSYVSWFAYWGQGTLVTVSSASTKGPSVFPLAPCSRSTSESTAALGCLVKDYFPEPVTVSWNSGALTSGVHTFPAVLQSSGLYSLSSVVTVPSSSLGTKTYTCNVDHKPSNTKVDKRVESKYGPPCPPCPAPEAAGGPSVFLFPPKPKDTLMISRTPEVTCVVVDVSQEDPEVQFNWYVDGVEVHNAKTKPREEQFNSTYRVVSVLTVLHQDWLNGKEYKCKVSNKGLPSSIEKTISKAKGQPREPQVYTLPPSQEEMTKNQVSLTCLVKGFYPSDIAVEWESNGQPENNYKTTPPVLDSDGSFLLYSKLTVDKSRWQEGNVFSCSVMHEALHNHYTQKSLSLSLGK light 2: QTVVTQEPSLTVSPGGTVTLTCRSSTGAVTTSNYANWVQQKPGQAPRGLIGGTNKRAPGTPARFSGSLLGGKAALTLSGVQPEDEAEYYCALWYSNLWVFGGGTKLTVLGQPKAAPSVTLFPPSSEELQANKATLVCLISDFYPGAVTVAWKADSSPVKAGVETTTPSKQSNNKYAASSYLSLTPEQWKSHRSYSCQVTHEGSTVEKTVAPTECS",EC50 (read off the curve),[1],~7 nM
same,EC50 (read off the curve),[2],~7 nM
"PS3B30 (bispecific antibody, human IgG4 S228P, kappa, lambda, F234A L235A, IgG4 PAA; PSMA arm chains first, then CD3 arm (F405L, R409K); also called PSMB130 x CD3B219) heavy 1: not shown light 1: not shown heavy 2: EVQLVESGGGLVQPGGSLRLSCAASGFTFNTYAMNWVRQAPGKGLEWVARIRSKYNNYATYYAASVKGRFTISRDDSKNSLYLQMNSLKTEDTAVYYCARHGNFGNSYVSWFAYWGQGTLVTVSSASTKGPSVFPLAPCSRSTSESTAALGCLVKDYFPEPVTVSWNSGALTSGVHTFPAVLQSSGLYSLSSVVTVPSSSLGTKTYTCNVDHKPSNTKVDKRVESKYGPPCPPCPAPEAAGGPSVFLFPPKPKDTLMISRTPEVTCVVVDVSQEDPEVQFNWYVDGVEVHNAKTKPREEQFNSTYRVVSVLTVLHQDWLNGKEYKCKVSNKGLPSSIEKTISKAKGQPREPQVYTLPPSQEEMTKNQVSLTCLVKGFYPSDIAVEWESNGQPENNYKTTPPVLDSDGSFLLYSKLTVDKSRWQEGNVFSCSVMHEALHNHYTQKSLSLSLGK light 2: QTVVTQEPSLTVSPGGTVTLTCRSSTGAVTTSNYANWVQQKPGQAPRGLIGGTNKRAPGTPARFSGSLLGGKAALTLSGVQPEDEAEYYCALWYSNLWVFGGGTKLTVLGQPKAAPSVTLFPPSSEELQANKATLVCLISDFYPGAVTVAWKADSSPVKAGVETTTPSKQSNNKYAASSYLSLTPEQWKSHRSYSCQVTHEGSTVEKTVAPTECS",EC50,[3],37.8 to 57 nM
same,EC50,[4],8 to 8.5 nM
"PS3B23 (bispecific antibody, human IgG4 S228P, kappa, lambda, F234A L235A, IgG4 PAA; PSMA arm chains first, then CD3 arm (F405L, R409K); also called PSMB123 x CD3B219) heavy 1: not shown light 1: not shown heavy 2: EVQLVESGGGLVQPGGSLRLSCAASGFTFNTYAMNWVRQAPGKGLEWVARIRSKYNNYATYYAASVKGRFTISRDDSKNSLYLQMNSLKTEDTAVYYCARHGNFGNSYVSWFAYWGQGTLVTVSSASTKGPSVFPLAPCSRSTSESTAALGCLVKDYFPEPVTVSWNSGALTSGVHTFPAVLQSSGLYSLSSVVTVPSSSLGTKTYTCNVDHKPSNTKVDKRVESKYGPPCPPCPAPEAAGGPSVFLFPPKPKDTLMISRTPEVTCVVVDVSQEDPEVQFNWYVDGVEVHNAKTKPREEQFNSTYRVVSVLTVLHQDWLNGKEYKCKVSNKGLPSSIEKTISKAKGQPREPQVYTLPPSQEEMTKNQVSLTCLVKGFYPSDIAVEWESNGQPENNYKTTPPVLDSDGSFLLYSKLTVDKSRWQEGNVFSCSVMHEALHNHYTQKSLSLSLGK light 2: QTVVTQEPSLTVSPGGTVTLTCRSSTGAVTTSNYANWVQQKPGQAPRGLIGGTNKRAPGTPARFSGSLLGGKAALTLSGVQPEDEAEYYCALWYSNLWVFGGGTKLTVLGQPKAAPSVTLFPPSSEELQANKATLVCLISDFYPGAVTVAWKADSSPVKAGVETTTPSKQSNNKYAASSYLSLTPEQWKSHRSYSCQVTHEGSTVEKTVAPTECS",binding result,[5],binds
"PS3B25 (bispecific antibody, human IgG4 S228P, kappa, lambda, F234A L235A, IgG4 PAA; also called PSMB87 x CD3B219) heavy 1: not shown light 1: not shown heavy 2: EVQLVESGGGLVQPGGSLRLSCAASGFTFNTYAMNWVRQAPGKGLEWVARIRSKYNNYATYYAASVKGRFTISRDDSKNSLYLQMNSLKTEDTAVYYCARHGNFGNSYVSWFAYWGQGTLVTVSSASTKGPSVFPLAPCSRSTSESTAALGCLVKDYFPEPVTVSWNSGALTSGVHTFPAVLQSSGLYSLSSVVTVPSSSLGTKTYTCNVDHKPSNTKVDKRVESKYGPPCPPCPAPEAAGGPSVFLFPPKPKDTLMISRTPEVTCVVVDVSQEDPEVQFNWYVDGVEVHNAKTKPREEQFNSTYRVVSVLTVLHQDWLNGKEYKCKVSNKGLPSSIEKTISKAKGQPREPQVYTLPPSQEEMTKNQVSLTCLVKGFYPSDIAVEWESNGQPENNYKTTPPVLDSDGSFLLYSKLTVDKSRWQEGNVFSCSVMHEALHNHYTQKSLSLSLGK light 2: QTVVTQEPSLTVSPGGTVTLTCRSSTGAVTTSNYANWVQQKPGQAPRGLIGGTNKRAPGTPARFSGSLLGGKAALTLSGVQPEDEAEYYCALWYSNLWVFGGGTKLTVLGQPKAAPSVTLFPPSSEELQANKATLVCLISDFYPGAVTVAWKADSSPVKAGVETTTPSKQSNNKYAASSYLSLTPEQWKSHRSYSCQVTHEGSTVEKTVAPTECS",binding result,[6],binds
same,binding result,[7],binds
